Consider 94 variants from the supplement of paper PMC10567573.

The chains are these.
B1: POMT2 (parent)
chain: LRGGGQVLLGWTLHYFPFFLMGRV
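Further: lentivirally expressed fusions sorted by FACS into six bins by GFP to DsRed ratio, PSI derived from sequencing read proportions per bin multiplied by bin number.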

The variants in this data set derive from B1. The experiment in a line: protein stability index of a GFP-peptide fusion (GPS, HEK-293T) (PSI 1-6); higher = more stable. The conditions noted are these: c terminus: a fixed tail appended.
Take LKGGGQVLLGWTLHYFPFFLMGRV [R2K]: the protein stability index came out at 2.04.
Then LWGGGQVLLGWTLHYFPFFLMGRV [R2W], with 3.48.
Then LSGGGQVLLGWTLHYFPFFLMGRV [R2S], with 2.59; and LTGGGQVLLGWTLHYFPFFLMGRV [R2T], with 1.36.
In the case of LYGGGQVLLGWTLHYFPFFLMGRV [R2Y], the protein stability index was 2.82.
For LRGGNQVLLGWTLHYFPFFLMGRV [G5N], the protein stability index stood at 3.2.
LRGGYQVLLGWTLHYFPFFLMGRV [G5Y]: the protein stability index turned out to be 3.6.
On to LRGGEQVLLGWTLHYFPFFLMGRV [G5E], for which the protein stability index came out at 3.02.
Under LRGGDQVLLGWTLHYFPFFLMGRV [G5D] stands 3.03.
For LRGGTQVLLGWTLHYFPFFLMGRV [G5T], the protein stability index amounted to 2.95.
Then LRGGIQVLLGWTLHYFPFFLMGRV [G5I], with 4.58.
Under LRGGGQVLLGCTLHYFPFFLMGRV [W11C] stands 3.48; under LRGGGQVLLGHTLHYFPFFLMGRV [W11H], 2.1; under LRGGGQVLLGQTLHYFPFFLMGRV [W11Q], 3.
For the variant LRGGGQVLLGRTLHYFPFFLMGRV [W11R], the protein stability index was found to be 2.67.
LRGGGQVLLGATLHYFPFFLMGRV [W11A]: the protein stability index was determined as 1.93.
Under LRGGGQVLLGMTLHYFPFFLMGRV [W11M] stands 1.04; under LRGGGQVLLGNTLHYFPFFLMGRV [W11N], 4.22.
Then LRGGGQVLLGYTLHYFPFFLMGRV [W11Y], with 1.2; and LRGGGQVLLGSTLHYFPFFLMGRV [W11S], with 1.38.
Then LRGGGQVLLGETLHYFPFFLMGRV [W11E], with 1.74.
As to LRGGGQVLLGKTLHYFPFFLMGRV [W11K], the protein stability index turned out to be 3.25.
In the case of LRGGGQVLLGTTLHYFPFFLMGRV [W11T], the protein stability index was determined as 2.09.
Then LRGGGQVVLGWTLHYFPFFLMGRV [L8V], with 1.64; and LRGGGQVYLGWTLHYFPFFLMGRV [L8Y], with 3.82; and LRGGGQVALGWTLHYFPFFLMGRV [L8A], with 2.97.
As for LRGGGQVNLGWTLHYFPFFLMGRV [L8N], the protein stability index stood at 3.
For LRGGGQVRLGWTLHYFPFFLMGRV [L8R], the protein stability index came out at 3.14.
Then LRGGGQCLLGWTLHYFPFFLMGRV [V7C], with 1.26; and LRGGGQGLLGWTLHYFPFFLMGRV [V7G], with 3.97.
On to LRGGGQALLGWTLHYFPFFLMGRV [V7A], for which the protein stability index is 2.26.
In the case of LRGGGQTLLGWTLHYFPFFLMGRV [V7T], the protein stability index was 1.32.
With LRGGGQMLLGWTLHYFPFFLMGRV [V7M], the protein stability index amounted to 2.07.
Then LRGGGQWLLGWTLHYFPFFLMGRV [V7W], with 2.36.
Under LRGGGQQLLGWTLHYFPFFLMGRV [V7Q] stands 1.21.
Turning to LRGGGQRLLGWTLHYFPFFLMGRV [V7R], the protein stability index came to 2.7.
Then LRGGGQYLLGWTLHYFPFFLMGRV [V7Y], with 4.03; and LRGGGQKLLGWTLHYFPFFLMGRV [V7K], with 4.17; and LRGGGQVLLGWSLHYFPFFLMGRV [T12S], with 2.1.
With LRGGGQVLLGWILHYFPFFLMGRV [T12I], the protein stability index stood at 3.35.
Under LRGGGQVLLGWALHYFPFFLMGRV [T12A] stands 2.59; under LRGGGQVLLGWVLHYFPFFLMGRV [T12V], 3.16.
Then LRGGGQVLLGWLLHYFPFFLMGRV [T12L], with 1.93; and LRGGGQVLLGWHLHYFPFFLMGRV [T12H], with 2.35; and LRGGGQVLLGWYLHYFPFFLMGRV [T12Y], with 2.7.
Then LRGGGQVLLGWTEHYFPFFLMGRV [L13E], with 2.93; and LRGGGQVLLGWTSHYFPFFLMGRV [L13S], with 3.02; and LRGGGQVLLGWTPHYFPFFLMGRV [L13P], with 2.64.
In the case of LRGGGQVLLGWTWHYFPFFLMGRV [L13W], the protein stability index worked out at 3.5.
Regarding LRGGGQVLLGWTCHYFPFFLMGRV [L13C], the protein stability index is 1.51.
Consider LRGGGQVLLGWTDHYFPFFLMGRV [L13D], for which the protein stability index stood at 1.29.
In the case of LRGGGQVLAGWTLHYFPFFLMGRV [L9A], the protein stability index is 3.06.
Then LRGGGQVLQGWTLHYFPFFLMGRV [L9Q], with 1.61; and LRGGGQVLFGWTLHYFPFFLMGRV [L9F], with 2.91; and LRGGGQVLHGWTLHYFPFFLMGRV [L9H], with 1.91.
Then LRGGGQVLPGWTLHYFPFFLMGRV [L9P], with 2.59; and LRGGGQVLNGWTLHYFPFFLMGRV [L9N], with 2.66; and LRGGGQVLTGWTLHYFPFFLMGRV [L9T], with 2.66.
In the case of LRGGGQVLCGWTLHYFPFFLMGRV [L9C], the protein stability index was 1.75.
Then LRGGGQVLMGWTLHYFPFFLMGRV [L9M], with 3.23.
Under LRGGGQVLEGWTLHYFPFFLMGRV [L9E] stands 1.89; under LRGGGQVLLGWTLHDFPFFLMGRV [Y15D], 1.72; under LRGGGQVLLGWTLHEFPFFLMGRV [Y15E], 2.31.
In the case of ARGGGQVLLGWTLHYFPFFLMGRV [L1A], the protein stability index stood at 3.17.
For SRGGGQVLLGWTLHYFPFFLMGRV [L1S], the protein stability index came to 2.23.
Consider ERGGGQVLLGWTLHYFPFFLMGRV [L1E], for which the protein stability index is 2.74.
As for DRGGGQVLLGWTLHYFPFFLMGRV [L1D], the protein stability index turned out to be 2.89.
Under FRGGGQVLLGWTLHYFPFFLMGRV [L1F] stands 3.06; under RRGGGQVLLGWTLHYFPFFLMGRV [L1R], 3.02.
GRGGGQVLLGWTLHYFPFFLMGRV [L1G]: the protein stability index came to 2.56.
Under LRGGGDVLLGWTLHYFPFFLMGRV [Q6D] stands 1.69; under LRGGGFVLLGWTLHYFPFFLMGRV [Q6F], 2.24; under LRGGGIVLLGWTLHYFPFFLMGRV [Q6I], 2.01.
In the case of LRGGGLVLLGWTLHYFPFFLMGRV [Q6L], the protein stability index was 2.48.
Then LRGGGKVLLGWTLHYFPFFLMGRV [Q6K], with 2.02; and LRGGGPVLLGWTLHYFPFFLMGRV [Q6P], with 3.06; and LRMGGQVLLGWTLHYFPFFLMGRV [G3M], with 1.82.
Then LRQGGQVLLGWTLHYFPFFLMGRV [G3Q], with 2.94; and LRNGGQVLLGWTLHYFPFFLMGRV [G3N], with 2.48; and LRWGGQVLLGWTLHYFPFFLMGRV [G3W], with 5.12.
As to LRSGGQVLLGWTLHYFPFFLMGRV [G3S], the protein stability index amounted to 1.68.
On to LRIGGQVLLGWTLHYFPFFLMGRV [G3I], for which the protein stability index was found to be 2.59.
Consider LRRGGQVLLGWTLHYFPFFLMGRV [G3R], for which the protein stability index was determined as 2.12.
As to LRYGGQVLLGWTLHYFPFFLMGRV [G3Y], the protein stability index worked out at 4.15.
Consider LRGYGQVLLGWTLHYFPFFLMGRV [G4Y], for which the protein stability index was 2.25.
Then LRGVGQVLLGWTLHYFPFFLMGRV [G4V], with 2.52.
As for LRGLGQVLLGWTLHYFPFFLMGRV [G4L], the protein stability index amounted to 1.27.
As for LRGMGQVLLGWTLHYFPFFLMGRV [G4M], the protein stability index was 3.71.
LRGFGQVLLGWTLHYFPFFLMGRV [G4F]: the protein stability index was 1.41.
Under LRGDGQVLLGWTLHYFPFFLMGRV [G4D] stands 2.16.
Take LRGHGQVLLGWTLHYFPFFLMGRV [G4H]: the protein stability index was 3.5.
For the variant LRGWGQVLLGWTLHYFPFFLMGRV [G4W], the protein stability index worked out at 1.47.
Under LRGRGQVLLGWTLHYFPFFLMGRV [G4R] stands 1.38; under LRGKGQVLLGWTLHYFPFFLMGRV [G4K], 3.19.
